System: Escherichia coli TOP10
Assay: shrunken log2 fold change of peptide-encoding DNA abundance (4.5 h post-induction vs induction); higher = less antimicrobial activity (less host growth inhibition)
Details: time post-induction: 4.5 h; library: site-saturation at positions 5, 18, 19, 20
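Also: peptides expressed intracellularly from a pBAD plasmid library in pooled LB shake-flask culture, induced with 0.3% L-arabinose, DNA abundance read by NGS, three biological replicates, DESeq2 with apeglm shrinkage.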

Sequence: RRIRWRPPRLPRPRPRPACNPRP
- shrunken log2 fold change: -0.144

Sequence: RRIRPRPPRLPRPRPRPFFGPRP
- shrunken log2 fold change: 0.0908

Sequence: RRIRYRPPRLPRPRPRPMCRPRP
- shrunken log2 fold change: -0.181

Sequence: RRIRLRPPRLPRPRPRPCHVPRP
- shrunken log2 fold change: -0.412

Sequence: RRIRARPPRLPRPRPRPTDLPRP
- shrunken log2 fold change: 0.274

Sequence: RRIRWRPPRLPRPRPRPQLYPRP
- shrunken log2 fold change: 0.185

Sequence: RRIRTRPPRLPRPRPRPCKWPRP
- shrunken log2 fold change: -0.000493

Sequence: RRIRHRPPRLPRPRPRPIRGPRP
- shrunken log2 fold change: 0.0308

Sequence: RRIRDRPPRLPRPRPRPSKMPRP
- shrunken log2 fold change: -0.0126

Sequence: RRIRERPPRLPRPRPRPDIAPRP
- shrunken log2 fold change: -0.0321

Sequence: RRIRERPPRLPRPRPRPEELPRP
- shrunken log2 fold change: 0.174

Sequence: RRIRPRPPRLPRPRPRPRAKPRP
- shrunken log2 fold change: 0.692

Sequence: RRIRHRPPRLPRPRPRPITFPRP
- shrunken log2 fold change: -0.0514

Sequence: RRIRDRPPRLPRPRPRPPAPPRP
- shrunken log2 fold change: 1.05

Sequence: RRIRCRPPRLPRPRPRPHNSPRP
- shrunken log2 fold change: -0.273

Sequence: RRIRCRPPRLPRPRPRPPRKPRP
- shrunken log2 fold change: 1.01

Sequence: RRIRFRPPRLPRPRPRPPVIPRP
- shrunken log2 fold change: 0.0684

Sequence: RRIRNRPPRLPRPRPRPEKGPRP
- shrunken log2 fold change: -0.0357

Sequence: RRIRTRPPRLPRPRPRPHFPPRP
- shrunken log2 fold change: -0.199

Sequence: RRIRYRPPRLPRPRPRPNIQPRP
- shrunken log2 fold change: -1.58

Sequence: RRIRPRPPRLPRPRPRPGMNPRP
- shrunken log2 fold change: -0.0398

Sequence: RRIRPRPPRLPRPRPRPSWSPRP
- shrunken log2 fold change: -0.0705

Sequence: RRIRERPPRLPRPRPRPLRLPRP
- shrunken log2 fold change: 0.304

Sequence: RRIRPRPPRLPRPRPRPSHCPRP
- shrunken log2 fold change: -0.666

Sequence: RRIRARPPRLPRPRPRPPTWPRP
- shrunken log2 fold change: 1.67

Sequence: RRIRNRPPRLPRPRPRPRMEPRP
- shrunken log2 fold change: -0.0307

Sequence: RRIRHRPPRLPRPRPRPCKNPRP
- shrunken log2 fold change: -0.444

Sequence: RRIRMRPPRLPRPRPRPWSKPRP
- shrunken log2 fold change: 0.0409

Sequence: RRIRVRPPRLPRPRPRPRFEPRP
- shrunken log2 fold change: 0.376

Sequence: RRIRARPPRLPRPRPRPCQVPRP
- shrunken log2 fold change: -0.47

Sequence: RRIRPRPPRLPRPRPRPTPDPRP
- shrunken log2 fold change: 0.356

Sequence: RRIRWRPPRLPRPRPRPGLAPRP
- shrunken log2 fold change: 0.505

Sequence: RRIRCRPPRLPRPRPRPFSMPRP
- shrunken log2 fold change: -0.107

Sequence: RRIRKRPPRLPRPRPRPLRPPRP
- shrunken log2 fold change: 1.01

Sequence: RRIRYRPPRLPRPRPRPRDKPRP
- shrunken log2 fold change: -0.667

Sequence: RRIRCRPPRLPRPRPRPTSGPRP
- shrunken log2 fold change: 0.285

Sequence: RRIRIRPPRLPRPRPRPKGIPRP
- shrunken log2 fold change: -0.13

Sequence: RRIRMRPPRLPRPRPRPMNGPRP
- shrunken log2 fold change: 0.0715

Sequence: RRIRIRPPRLPRPRPRPCHPPRP
- shrunken log2 fold change: -0.447

Sequence: RRIRDRPPRLPRPRPRPLLPPRP
- shrunken log2 fold change: 0.356

Sequence: RRIRWRPPRLPRPRPRPSPKPRP
- shrunken log2 fold change: 0.403

Sequence: RRIRLRPPRLPRPRPRPKDDPRP
- shrunken log2 fold change: -0.0117

Sequence: RRIRLRPPRLPRPRPRPGHDPRP
- shrunken log2 fold change: 0.147

Sequence: RRIRARPPRLPRPRPRPFDYPRP
- shrunken log2 fold change: -0.245

Sequence: RRIRWRPPRLPRPRPRPICAPRP
- shrunken log2 fold change: 0.291

Sequence: RRIRFRPPRLPRPRPRPIISPRP
- shrunken log2 fold change: -0.332

Sequence: RRIRTRPPRLPRPRPRPMCSPRP
- shrunken log2 fold change: -0.0861

Sequence: RRIRQRPPRLPRPRPRPIIIPRP
- shrunken log2 fold change: -0.197

Sequence: RRIRARPPRLPRPRPRPDVLPRP
- shrunken log2 fold change: 0.579

Sequence: RRIRSRPPRLPRPRPRPTPMPRP
- shrunken log2 fold change: 0.61

Sequence: RRIRARPPRLPRPRPRPFMSPRP
- shrunken log2 fold change: -0.0065

Sequence: RRIRYRPPRLPRPRPRPPNSPRP
- shrunken log2 fold change: -0.384

Sequence: RRIRDRPPRLPRPRPRPGPHPRP
- shrunken log2 fold change: 0.132

Sequence: RRIRNRPPRLPRPRPRPADNPRP
- shrunken log2 fold change: 0.0856

Sequence: RRIRPRPPRLPRPRPRPDKKPRP
- shrunken log2 fold change: -0.429

Sequence: RRIRTRPPRLPRPRPRPSPRPRP
- shrunken log2 fold change: 0.396

Sequence: RRIRGRPPRLPRPRPRPMVIPRP
- shrunken log2 fold change: 0.329

Sequence: RRIRERPPRLPRPRPRPFDEPRP
- shrunken log2 fold change: -0.433

Sequence: RRIRKRPPRLPRPRPRPQYKPRP
- shrunken log2 fold change: -0.343

Sequence: RRIRSRPPRLPRPRPRPTVFPRP
- shrunken log2 fold change: 0.222

— the supplement of paper PMC9112550, “Optimization of the antimicrobial peptide Bac7 by deep mutational scanning” (BMC Biology, 2022)
